Test [1] concerns the target T1, human CDH6 on tumor cells (OVCAR3 cells, PA-1 cells) (human, UniProt P55285 54-790).
T1 sequence: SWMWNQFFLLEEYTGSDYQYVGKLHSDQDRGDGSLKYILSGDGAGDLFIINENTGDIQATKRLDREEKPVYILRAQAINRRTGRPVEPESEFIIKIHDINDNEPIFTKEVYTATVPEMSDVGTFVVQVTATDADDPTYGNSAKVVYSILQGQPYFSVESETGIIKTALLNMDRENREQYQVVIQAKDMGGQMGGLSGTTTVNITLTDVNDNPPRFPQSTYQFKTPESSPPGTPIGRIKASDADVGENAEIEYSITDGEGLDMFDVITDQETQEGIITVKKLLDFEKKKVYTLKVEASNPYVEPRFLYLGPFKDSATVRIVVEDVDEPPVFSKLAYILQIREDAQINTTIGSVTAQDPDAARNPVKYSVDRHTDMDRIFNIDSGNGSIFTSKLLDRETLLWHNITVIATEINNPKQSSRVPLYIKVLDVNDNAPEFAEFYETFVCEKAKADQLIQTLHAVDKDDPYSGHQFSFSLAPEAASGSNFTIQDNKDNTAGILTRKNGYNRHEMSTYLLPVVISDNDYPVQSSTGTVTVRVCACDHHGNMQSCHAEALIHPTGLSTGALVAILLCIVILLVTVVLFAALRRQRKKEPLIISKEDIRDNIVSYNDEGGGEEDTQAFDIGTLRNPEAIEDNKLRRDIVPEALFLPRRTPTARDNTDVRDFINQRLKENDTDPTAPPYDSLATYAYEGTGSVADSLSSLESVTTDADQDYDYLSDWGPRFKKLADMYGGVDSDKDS
The test can be described thus: FACS, OVCAR3 cells. As for the experimental part: OVCAR3 cells with high expression of CDH6 and PA-1 cells with moderate expression of CDH6 were used to detect the binding activity of the antibodies to the cells. […] The cells were washed once with PBS, counted, resuspended to 2×10⁶ cells/mL in an FACS buffer (PBS+2% FBS), and then added to a 96-well plate at 50 μL/well. The chimeric antibodies were diluted with FACS buffer (PBS+2% FBS) and added to the 96-well plate at 50 μL/well, and the plate was incubated at 4° C. for 1 h. […] The dilution was added to the 96-well plate at 50 μL/well, and the plate was incubated at 4° C. for 1 h. After the plates were centrifuged and washed 2 times with PBS, the cells were resuspended in an FACS buffer. The mean fluorescence intensity (MFI) was measured using FACS Canton II (BD). Analysis was performed by the GraphPad Prism software, data were fitted, and EC50 values were calculated. The chimeric antibodies tested had strong binding to both OVCAR3 cells and PA-1 cells.
According to the above sequences, heavy chain (HC) and light chain (LC) plasmids were constructed (the nucleic acid sequences encoding the VH and VL of the antibodies were recombined into an expression vector carrying a signal peptide (SEQ ID NO: 132, […]) and a heavy chain constant region/light chain constant region sequence to obtain recombinant plasmids expressing VH-CH1-Fc/VL-CL). According to the expression and purification methods in Example 2, the hCDH6-1 humanized antibodies were obtained, and the binding activity of the humanized antibodies was detected by ELISA and FACS (see 2.2 and 2.3 for the method).

In test [2] the target is T2, his-tagged human CDH6 extracellular region protein (hCDH6 ECD-his) (human, UniProt P55285 19-615).
T2 construct: also called Human CDH6-his; hCDH6-his; not shown: his tag
T2 sequence: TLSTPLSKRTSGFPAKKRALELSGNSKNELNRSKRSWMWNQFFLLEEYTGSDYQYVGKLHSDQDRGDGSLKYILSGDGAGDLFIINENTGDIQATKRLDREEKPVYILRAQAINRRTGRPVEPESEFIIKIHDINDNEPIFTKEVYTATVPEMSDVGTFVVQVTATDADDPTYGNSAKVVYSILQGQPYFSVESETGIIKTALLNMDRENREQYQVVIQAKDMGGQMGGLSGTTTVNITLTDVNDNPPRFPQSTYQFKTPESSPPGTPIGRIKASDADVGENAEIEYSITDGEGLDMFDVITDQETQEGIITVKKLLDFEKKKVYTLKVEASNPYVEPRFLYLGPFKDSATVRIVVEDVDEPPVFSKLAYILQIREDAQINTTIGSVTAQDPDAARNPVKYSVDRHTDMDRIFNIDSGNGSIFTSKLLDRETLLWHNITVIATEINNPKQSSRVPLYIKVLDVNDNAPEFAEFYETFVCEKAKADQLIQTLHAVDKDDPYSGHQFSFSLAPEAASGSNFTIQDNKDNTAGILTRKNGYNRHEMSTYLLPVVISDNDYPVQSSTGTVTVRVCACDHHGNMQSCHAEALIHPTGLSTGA
As to the kind of experiment: ELISA, coated antigen. In outline:
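Plates coated overnight at 4 °C with his-tagged CDH6 ECD (human; also cyno and murine, residues 19-615) at 1 μg/mL. Chimeric antibody dilutions bound 2 h at 37 °C; TMB read-out at OD450 nm, EC50 from fitted curves.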

B1: hCDH6-1-H2L3 (antibody, V domains shown)
VH: EVQLVQSGAEVKKPGSSVKVSCKASGYTFTNYWMHWVRQAPGQGLEWMGDIDPSHSETHYTQKFKDRVTITVDKSTSTAYMELSSLRSEDTAVYYCARGDLGRFDYWGQGTTVTVSS
VL: DIQMTQSPSSLSASVGDRVTITCRASESVSIHGTHLMHWYQQKPGKPPKLLIYAASNLESGVPSRFSGSGSETDFTFTISSLQPEDIATYYCQQSFEDPWTFGGGTKVEIK
notes: Humanized
As for B1, in test [1], the midpoint of the response, the EC50, lay at 0.17 nM and the “Max MFI” value was 14800 MFI.

B2: CHI-CDH6-6 (antibody, human IgG1, kappa, V domains shown)
VH: EVQLQQSGPELVKPGDSVKMSCKASGYTFTDYYMAWVRQSHRKSLEWIGYIFPNSGGTDYSQKFKGKATLTVDKSSSTVYMELHSLTSEDSAVYYCARELGADYGDYYAMDHWGQGTSVSVSS
VL: DIQMTQSPASLSASVGETVTITCRASENIDSYLAWYQQKQGKSPQLLVYSATLLADGVPSRFSGSGSGTQYSLKINSLKSEDVARYYCQHYYRTPPTFGSGTKLEIKR
notes: also called CHI-hCDH6-6; chimeric antibody of murine CDH6-6
In the case of B2, in test [2], the EC50 came out at 0.028 nM and the “Max OD450” value is 2.02 OD450.

B3: hCDH6-6-H2L2 (antibody, V domains shown)
VH: EVQLVQSGAEVKKPGASVKVSCKASGYTFTDYYMAWVRQAPGQGLEWMGYIFPNSGGTDYSQKFKGRVTLTVDKSTSTVYMELSSLRSEDTAVYYCARELGADYGDYYAMDHWGQGTTVTVSS
VL: DIQMTQSPSSLSASVGDRVTITCRASENIDSYLAWYQQKPGKSPKLLVYSATLLADGVPSRFSGSGSGTDYTLTISSLQPEDFATYYCQHYYRTPPTFGQGTKLEIK
notes: Humanized
Regarding B3, in test [2], a half-maximal response (EC50) required 0.026 nM and the “Max OD450” value was 1.97 OD450.

B4: CHI-CDH6-1 (antibody, human IgG1, kappa, V domains shown)
VH: QVQLQQPGAELVRPGSSVKLSCKASGYTFTNYWMHWVKQRPIEGLEWIGDIDPSHSETHYTQKFKDKATLTVDKSSSTAYMQLSSLTSEDSAVYYCARGDLGRFDYWGQGTTLTVSS
VL: DIVLTQSPASLAVSLGQRATISCRASESVSIHGTHLMHWYQQKSGQPPKLLIYAASNLESGVPARFSGSGSETDFTFNIHPVEEEDAATYFCQQSFEDPWTFGGGTKLEIKR
notes: also called CHI-hCDH6-1; CH1-CDH6-1
Take B4: in test [1], the EC50 turned out to be 0.194 nM and the “Max MFI” value is 14900 MFI.
